Source: PMC13246001, “Membrane binding controls the ATPase cycle and localization of MinD in Bacillus subtilis” (eLife, 2026)

B1: His-MinD (B. subtilis MinD, N-terminally His-tagged) [B. subtilis] / itself (parent)
chain: MGEAIVITSGKGGVGKTTTSANLGTALAILGKRVCLVDTDIGLRNLDVVMGLENRIIYDLVDVVEGRCKMHQALVKDKRFDDLLYLMPAAQTSDKTAVAPEQIKNMVQELKQEFDYVIIDCPAGIEQGYKNAVSGADKAIVVTTPEISAVRDADRIIGLLEQEENIEPPRLVVNRIRNHLMKNGDTMDIDEIVQHLSIDLLGIVADDDEVIKASNHGEPIAMDPKNRASIAYRNIARRILGESVPLQVLEEQNKGMMAKIKSFFGVRS

Variants of: B1
Assay: gel filtration (size-exclusion chromatography), self-association
Conditions: with itself; purification buffers supplied with excess Mg2+-ADP; read off a plot

elution volume [mL] | Variant
15.8 | MGEAIVITSGKGGVGKTTTSANLGTALAILGKRVCLVDTAIGLRNLDVVMGLENRIIYDLVDVVEGRCKMHQALVKDKRFDDLLYLMPAAQTSDKTAVAPEQIKNMVQELKQEFDYVIIDCPAGIEQGYKNAVSGADKAIVVTTPEISAVRDADRIIGLLEQEENIEPPRLVVNRIRNHLMKNGDTMDIDEIVQHLSIDLLGIVADDDEVIKASNHGEPIAMDPKNRASIAYRNIARRILGESVPLQVLEEQNKGMMAKIKSFFGVRS [chain 1 D40A]
15.7 | MGEAIVITSGKGGVGATTTSANLGTALAILGKRVCLVDTDIGLRNLDVVMGLENRIIYDLVDVVEGRCKMHQALVKDKRFDDLLYLMPAAQTSDKTAVAPEQIKNMVQELKQEFDYVIIDCPAGIEQGYKNAVSGADKAIVVTTPEISAVRDADRIIGLLEQEENIEPPRLVVNRIRNHLMKNGDTMDIDEIVQHLSIDLLGIVADDDEVIKASNHGEPIAMDPKNRASIAYRNIARRILGESVPLQVLEEQNKGMMAKIKSFFGVRS [chain 1 K16A]
16.1 | MGEAIVITSGKVGVGKTTTSANLGTALAILGKRVCLVDTDIGLRNLDVVMGLENRIIYDLVDVVEGRCKMHQALVKDKRFDDLLYLMPAAQTSDKTAVAPEQIKNMVQELKQEFDYVIIDCPAGIEQGYKNAVSGADKAIVVTTPEISAVRDADRIIGLLEQEENIEPPRLVVNRIRNHLMKNGDTMDIDEIVQHLSIDLLGIVADDDEVIKASNHGEPIAMDPKNRASIAYRNIARRILGESVPLQVLEEQNKGMMAKIKSFFGVRS [chain 1 G12V]
